Earlier results as cited in patent US20030175285A1, “Molecule of pharmaceutical interest comprising at its n-terminal a glutamic acid or a glutamine in the form of a physiologically acceptable strong acid” (priority 2000, published 2003).

Settings: in 2 months, formulated with adjuvant solution of the Montanide ISA 720 type

## EEGAIVGEI
  spontaneous cyclization to pyroglutamate: 30%
